pKd: −log10 of the molar value. Like-named read-outs stand apart in the source and are kept apart here.
Assays:
[1] = biological target: WT PolC CBM peptide (QLSLF) with flanking amino acids from PolC, fluorescein-labelled (B. subtilis); test: fluorescence polarisation; direct binding: B. subtilis DnaN in 3-fold serial dilution from 50 μM, 20 nM fluorescein-labelled peptide; 20 mM Tris-HCl pH 7.5, 100 mM NaCl, 5 mM BME, 10% glycerol, 0.1% pluronic acid F-68; fit to a 1:1 binding model
[2] = biological target: PolC CBM sequence (QLSLF) peptide with the flanking amino acids from DnaE, fluorescein-labelled (B. subtilis); test: as above
[3] = biological target: WT PolC CBM peptide (QLSLF) with flanking amino acids from PolC, fluorescein-labelled (B. subtilis); test: as above; remark: listed apart in the source
[4] = biological target: Pol III alpha CBM (Escherichia coli); settings: cited from earlier work

Row | Substance | pKd [1] | pKd [2] | pKd [3] | pKd [4]
1 | B. subtilis DnaN (sliding clamp), N-terminally His6-tagged (from UniProt P05649 1-378) (natural protein) | 5.42 | 5.14 | 5.41 | –
2 | DnaN clamp (from UniProt P0A988) | – | – | – | 6.10

Source: article PMC12309361
